Assay results taken from patent US20200362026A1 (INSTITUTE FOR RESEARCH IN BIOMEDICINE, published 2020).

T1: FcγRIIa (UniProt P12318 34-317, limits assumed)
T1 construct: whole, on cells; also called FcgRIIa; Fcγ receptor IIa
T1 sequence (looked up): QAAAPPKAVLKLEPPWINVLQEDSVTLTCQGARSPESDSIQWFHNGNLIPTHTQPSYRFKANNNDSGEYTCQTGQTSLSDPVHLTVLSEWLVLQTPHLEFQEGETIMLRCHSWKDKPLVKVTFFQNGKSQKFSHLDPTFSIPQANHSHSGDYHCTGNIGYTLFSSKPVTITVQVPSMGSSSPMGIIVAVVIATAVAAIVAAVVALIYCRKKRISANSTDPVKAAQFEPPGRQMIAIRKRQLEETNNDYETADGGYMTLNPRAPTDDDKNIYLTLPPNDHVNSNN

T2: FcγRIIb (UniProt P31994 43-310, limits assumed)
T2 construct: whole, on cells; also called FcgRIIb; Fcγ receptor IIb
T2 sequence (looked up): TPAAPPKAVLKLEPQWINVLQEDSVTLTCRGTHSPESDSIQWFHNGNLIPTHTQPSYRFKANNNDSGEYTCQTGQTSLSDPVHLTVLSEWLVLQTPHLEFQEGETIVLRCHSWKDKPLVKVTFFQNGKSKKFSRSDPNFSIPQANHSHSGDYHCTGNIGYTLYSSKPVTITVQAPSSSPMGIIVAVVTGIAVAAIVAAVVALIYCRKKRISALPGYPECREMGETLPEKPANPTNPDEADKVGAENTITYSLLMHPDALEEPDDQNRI


How the values were obtained:
[1] = target: T3, human GM-CSF (granulocyte macrophage-colony stimulating factor) (human, UniProt P04141 18-144); experiment: ELISA on GM-CSF
T3 construct: Soluble cytokine used in ELISA, SPR, TF-1 bioassay and immune complex formation; also called recombinant GM-CSF
T3 sequence (P04141 18-144 limits assumed): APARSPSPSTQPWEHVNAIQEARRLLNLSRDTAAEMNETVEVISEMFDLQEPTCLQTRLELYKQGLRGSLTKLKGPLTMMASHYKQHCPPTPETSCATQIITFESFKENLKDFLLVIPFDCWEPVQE

[2] = target: T3, human GM-CSF (granulocyte …); experiment: cell-based or functional assay
FcγRIIa [3] = target: T1, FcγRIIa; experiment: flow cytometry, TZM-bl cells expressing FcγRIIa, mAb alone (w/o GM-CSF)
Method: (§1) Expression of specific FcγRs was assessed by staining TZM-b1 cells with FITC-conjugated anti-CD64 (anti-FcγRI), anti-CD32 (anti-FcγRIIa and anti-FcγRIIb) and anti-CD16 (anti-FcγRIIIa) antibodies (all from BD Pharmingen). Untrasfected and transfected TZM-b1 cells were washed with staining buffer (PBS with 10% Fetal Bovine Serum and 2 mM EDTA) and seeded in 96-well-plates at a density of 50,000 cells per well. […] The LALA versions of all antibodies and a mAb with a different specificity were included as controls. Samples were incubated at 37° C. for 30 min to allow the formation of immune complexes and then cooled down to 4° C. before adding them to TZM-b1 cells for 30 min. Cells were washed twice and stained with anti-human IgG Fcγ fragment specific F(ab′)2 fragment (Jackson ImmunoResearch). Samples were analyzed on BD FACSCanto (BD Biosciences) and median intensity fluorescence was analyzed and compared between samples.
(§2) To address the engagement of Fcγ receptors, immune complexes formed between GM-CSF and multispecific antibodies were tested for their capacity to bind to TZM-b1 cells expressing FcγRIIa and FcγRIIb receptors. Multispecific antibodies were mixed with 0.05 μg/ml of GM-CSF, or staining buffer. Samples were incubated at 37° C. for 30 min to allow the formation of immune complexes and then cooled down to 4° C. before adding them to TZM-b1 cells for 30 minutes. Cells were washed twice and stained with anti-human IgG Fcγ fragment specific F(ab′)2 fragment. Samples were analyzed on BD FACSCanto (BD Biosciences) and median intensity fluorescence was analyzed and compared between samples.

FcγRIIb [4] = target: T2, FcγRIIb; experiment: flow cytometry, TZM-bl cells expressing FcγRIIb, mAb alone (w/o GM-CSF)
Method: as §1, §2

FcγRIIa [5] = target: T1, FcγRIIa; experiment: flow cytometry, TZM-bl cells expressing FcγRIIa, immune complex with low GM-CSF
Method: as §1, §2

FcγRIIb [6] = target: T2, FcγRIIb; experiment: flow cytometry, TZM-bl cells expressing FcγRIIb, immune complex with low GM-CSF
Method: as §1, §2

FcγRIIa [7] = target: T1, FcγRIIa; experiment: flow cytometry, TZM-bl cells expressing FcγRIIa, immune complex with high GM-CSF
Method: as §2

FcγRIIb [8] = target: T2, FcγRIIb; experiment: flow cytometry, TZM-bl cells expressing FcγRIIb, immune complex with high GM-CSF
Method: as §1, §2

FcγRIIa [9] = target: T1, FcγRIIa; experiment: flow cytometry, TZM-bl FcγRIIa cells; average ratio of binding in presence and in absence of GM-CSF
Method: as §2

FcγRIIb [10] = target: T2, FcγRIIb; experiment: flow cytometry, TZM-bl FcγRIIb cells; average ratio of binding in presence and in absence of GM-CSF
Method: as §1, §2

Binder	EC50 [1]	IC90 less stringent conditions (50 pg/ml GM-CSF, 1,000 TF-1/well) [2]	IC90 more stringent conditions (500 pg/ml GM-CSF, 1,000 TF-1/well) [2]	IC90 stringent conditions (50 pg/ml GM-CSF, 10,000 TF-1/well) [2]	IC90 very stringent conditions (500 pg/ml GM-CSF, 10,000 TF-1/well) [2]	MFI (FcγRIIa [3])	MFI (FcγRIIb [4])	MFI (FcγRIIa [5])	MFI (FcγRIIb [6])	MFI (FcγRIIa [7])	MFI (FcγRIIb [8])	Average RATIO FcgRIIa (FcγRIIa [9])	Average RATIO FcgRIIb (FcγRIIb [10])
Bs3GC2b bispecific antibody (bispecific antibody, human IgG1, lambda, Bispecific tetravalent IgG1, construct type Bs3; specificities GCE536 + GCB59) heavy: not shown light: SYVLTQPPSVSVAPGQTASLTCGGTNIGSKSVHWYQQKAGQAPVLVVYADNDRPSGVPERFSGSNSGNTATLTISRVEAEDESDYFCQVWDGNTDHVVFGGGTKLTVLGQPKAAPSVTLFPPSSEELQANKATLVCLISDFYPGAVTVAWKADSSPVKAGVETTTPSKQSNNKYAASSYLSLTPEQWKSHRSYSCQVTHEGSTVEKTVAPTECS	48.6 ng/mL	0.559 ng/mL	6.21 ng/mL	1.07 ng/mL	11.2 ng/mL	6910 MFI	96700 MFI	7130 MFI	181000 MFI	269000 MFI	1.3e+06 MFI	20 ratio	7.67 ratio
Bs3GC3b bispecific antibody (bispecific antibody, human IgG1, lambda, Bispecific tetravalent IgG1, construct type Bs3; specificities GCA7 + GCB59) heavy: not shown light: SYVLTQPPSVSVAPGQTASLTCGGTNIGSKSVHWYQQKAGQAPVLVVYADNDRPSGVPERFSGSNSGNTATLTISRVEAEDESDYFCQVWDGNTDHVVFGGGTKLTVLGQPKAAPSVTLFPPSSEELQANKATLVCLISDFYPGAVTVAWKADSSPVKAGVETTTPSKQSNNKYAASSYLSLTPEQWKSHRSYSCQVTHEGSTVEKTVAPTECS	587 ng/mL	1.28 ng/mL	17.8 ng/mL	2.96 ng/mL	124 ng/mL	650 MFI	2630 MFI	8290 MFI	57800 MFI	55000 MFI	433000 MFI	48.7 ratio	93.3 ratio
Bs3GC1a bispecific antibody (bispecific antibody, human IgG1, kappa, Bispecific tetravalent IgG1, construct type Bs3; specificities GCE536 + GCA7) heavy: not shown light: EIVLTQSPGTLSLSPGETAILSCRASQSVSSSLLAWYQQKPGQAPRLLIYGASNRATGIRGRFSGSGSGTDFTLTISRLEPEDFVLYYCQHYGSRVTFGQGTKLEIKRTVAAPSVFIFPPSDEQLKSGTASVVCLLNNFYPREAKVQWKVDNALQSGNSQESVTEQDSKDSTYSLSSTLTLSKADYEKHKVYACEVTHQGLSSPVTKSFNRGEC	74.3 ng/mL	0.681 ng/mL	4.72 ng/mL	0.963 ng/mL	6.24 ng/mL	687 MFI	20600 MFI	1270 MFI	175000 MFI	65300 MFI	510000 MFI	48.4 ratio	16.6 ratio
Bs1GC2a bispecific antibody (bispecific antibody, human IgG1, kappa, Bispecific tetravalent IgG1, construct type Bs1; specificities GCE536 + GCB59) heavy: not shown light: EIVLTQSPGTLSLSPGETAILSCRASQSVSSSLLAWYQQKPGQAPRLLIYGASNRATGIRGRFSGSGSGTDFTLTISRLEPEDFVLYYCQHYGSRVTFGQGTKLEIKRTVAAPSVFIFPPSDEQLKSGTASVVCLLNNFYPREAKVQWKVDNALQSGNSQESVTEQDSKDSTYSLSSTLTLSKADYEKHKVYACEVTHQGLSSPVTKSFNRGEC	16.2 ng/mL	2.77 ng/mL	9.92 ng/mL	31.4 ng/mL	217 ng/mL	662 MFI	11800 MFI	9140 MFI	398000 MFI	566000 MFI	1.44e+06 MFI	435 ratio	77.8 ratio

More lines, now with the values ahead:

EC50 [1]	IC90 less stringent conditions (50 pg/ml GM-CSF, 1,000 TF-1/well) [2]	IC90 more stringent conditions (500 pg/ml GM-CSF, 1,000 TF-1/well) [2]	IC90 stringent conditions (50 pg/ml GM-CSF, 10,000 TF-1/well) [2]	IC90 very stringent conditions (500 pg/ml GM-CSF, 10,000 TF-1/well) [2]	MFI (FcγRIIa [3])	MFI (FcγRIIb [4])	MFI (FcγRIIa [5])	MFI (FcγRIIb [6])	MFI (FcγRIIa [7])	MFI (FcγRIIb [8])	Average RATIO FcgRIIa (FcγRIIa [9])	Average RATIO FcgRIIb (FcγRIIb [10])	Binder
32.3 ng/mL	9.26 ng/mL	97.5 ng/mL	90.8 ng/mL	739 ng/mL	6730 MFI	123000 MFI	24500 MFI	137000 MFI	19500 MFI	62600 MFI	3.26 ratio	0.81 ratio	Bs3GC4 bispecific antibody (bispecific antibody, human IgG1, kappa, Bispecific tetravalent IgG1, construct type Bs3; specificities GCA21 + GCE536; also called BsGC4) heavy: not shown light: DIQMTQSPSTLSTSVGDRVTITCRASQNILNWLAWYQQKPGNAPNLLIYKASDLQSGVPSRFSGSGSGTEFTLTISSLQPDDFATYYCQHYNSYPLTFGGGTKVEIKRTVAAPSVFIFPPSDEQLKSGTASVVCLLNNFYPREAKVQWKVDNALQSGNSQESVTEQDSKDSTYSLSSTLTLSKADYEKHKVYACEVTHQGLSSPVTKSFNRGEC
41.8 ng/mL	1.3 ng/mL	6.46 ng/mL	4.18 ng/mL	10.2 ng/mL	1100 MFI	177000 MFI	30200 MFI	393000 MFI	468000 MFI	1.58e+06 MFI	226 ratio	5.58 ratio	Bs3GC5 bispecific antibody (bispecific antibody, human IgG1, kappa, Bispecific tetravalent IgG1, construct type Bs3; specificities GCA21 + GCA7) heavy: not shown light: DIQMTQSPSTLSTSVGDRVTITCRASQNILNWLAWYQQKPGNAPNLLIYKASDLQSGVPSRFSGSGSGTEFTLTISSLQPDDFATYYCQHYNSYPLTFGGGTKVEIKRTVAAPSVFIFPPSDEQLKSGTASVVCLLNNFYPREAKVQWKVDNALQSGNSQESVTEQDSKDSTYSLSSTLTLSKADYEKHKVYACEVTHQGLSSPVTKSFNRGEC
33.5 ng/mL	0.265 ng/mL	3.17 ng/mL	0.281 ng/mL	2.53 ng/mL	2850 MFI	67200 MFI	4130 MFI	136000 MFI	9870 MFI	397000 MFI	2.46 ratio	3.96 ratio	Ts1GC2a trispecific antibody (antibody, human IgG1, kappa, Trispecific hexavalent IgG1, construct type Ts1; specificities GCE536 + GCA7 + GCB59) heavy: not shown light: EIVLTQSPGTLSLSPGETAILSCRASQSVSSSLLAWYQQKPGQAPRLLIYGASNRATGIRGRFSGSGSGTDFTLTISRLEPEDFVLYYCQHYGSRVTFGQGTKLEIKRTVAAPSVFIFPPSDEQLKSGTASVVCLLNNFYPREAKVQWKVDNALQSGNSQESVTEQDSKDSTYSLSSTLTLSKADYEKHKVYACEVTHQGLSSPVTKSFNRGEC
29.6 ng/mL	0.536 ng/mL	0.795 ng/mL	0.413 ng/mL	0.768 ng/mL	1310 MFI	29000 MFI	7900 MFI	344000 MFI	122000 MFI	652000 MFI	49.5 ratio	17.2 ratio	Ts3GC2d trispecific antibody (antibody, human IgG1, kappa, Trispecific hexavalent IgG1, construct type Ts3; specificities GCE536 + GCA7 + GCB59; also called TsGC2d; TsgC2d) heavy: not shown light: EIVLTQSPGTLSLSPGETAILSCRASQSVSSSLLAWYQQKPGQAPRLLIYGASNRATGIRGRFSGSGSGTDFTLTISRLEPEDFVLYYCQHYGSRVTFGQGTKLEIKRTVAAPSVFIFPPSDEQLKSGTASVVCLLNNFYPREAKVQWKVDNALQSGNSQESVTEQDSKDSTYSLSSTLTLSKADYEKHKVYACEVTHQGLSSPVTKSFNRGEC
